From patent publication US20240076402A1, “HUMANIZED ANTI-LIV1 ANTIBODIES FOR THE TREATMENT OF BREAST CANCER” (Seagen Inc., priority 2017, published 2024)

Columns and labels:
Assay type in all cases: in vivo, human
[1] = tested on: women with LIV-1-positive, unresectable, locally advanced or metastatic breast cancer (LA/MBC); test: Phase 1 study of SGN-LIV1A: safety and tolerability
Procedure: (§1) This ongoing, phase 1 study evaluated safety, tolerability, pharmacokinetics, and anti-tumor activity of SGN-LIV1A (q3wks IV) in women with LIV-1-positive, unresectable, locally advanced or metastatic breast cancer (LA/MBC) (NCT01969643). Patients with measurable disease and >2 prior cytotoxic regimens for LA/MBC were eligible. Patients with ≥Grade 2 neuropathy were excluded. Response was assessed per RECIST v1.1; pts with stable disease (SD) or better could continue treatment until disease progression or intolerable toxicity. At completion of dose escalation in hormone receptor-positive/HER2-negative (HR+/HER2−) and triple-negative (TN) patients, expansion cohorts were opened to further evaluate safety and antitumor activity of monotherapy in TN patients. Tumor biopsies were evaluated for LIV1 expression.
At the completion of dose escalation, multiple expansion cohorts for SGN-LIV1A monotherapy (Part A) treatment were opened to enroll up to 15 patients each with specific breast cancer subtypes at a recommended dose level to further define the safety and antitumor activity. Following an analysis of safety and activity in the 2.0 mg/kg versus 2.5 mg/kg dose cohorts, the recommended phase 2 dose was determined to be 2.5 mg/kg (maximum dose of 200 mg per cycle)

[2] = tested on: hormone receptor-positive/HER2-negative (HR+/HER2-) LIV-1-positive LA/MBC; test: Phase 1 study of SGN-LIV1A: anti-tumor activity per RECIST v1.1, HR+/HER2- patients; details: 17 efficacy evaluable HR+/HER2- patients, dose escalation
Procedure: as §1

[3] = tested on: triple-negative (TN) LIV-1-positive LA/MBC; test: Phase 1 study of SGN-LIV1A: anti-tumor activity per RECIST v1.1, triple-negative patients
Procedure: as §1

[4] = tested on: patients with LIV-1-positive LA/MBC, weight greater than or equal to 80 kg; test: Phase 1 dose expansion continuation: safety of a total maximum dose of 250 mg per cycle, with or without GCSF; details: 2.5 mg/kg, >=200 mg up to 250 mg per cycle
Procedure: This study is a continuation of the dose expansion cohort study for SGN-LIV1A monotherapy (Part A) of the phase 1 study described in Example 1, which includes data from 22 additional administrations of SGN-LIV1A (q3wks IV). Patients were as described in Example 1. These additional administrations were conducted to assess the safety of a total maximum dose of 250 mg per cycle. Patients were dosed at 2.5 mg/kg and each of these 22 additional administrations were greater than or equal to 200 mg per cycle due to the patients having a weight greater than or equal to 80 kg.

[5] = % of 69 patients, 0.5 to 2.8 mg/kg q3wks IV

Substance: SGN-LIV1A: anti-LIV-1 humanized antibody (hLIV22) conjugated to monomethyl auristatin E (MMAE) via a protease-cleavable valine-citrulline linker
- febrile neutropenic events or neutropenia-associated SAEs ([1]; 2.0 mg/kg (N=26)): no febrile neutropenic events or neutropenia-associated SAEs
- incidence of Grade 3 or higher neutropenia AEs ([1]; 2.5 mg/kg dose level of Part A (monotherapy)): 57%
- febrile neutropenic events or neutropenia-associated SAEs ([1]; 2.5 mg/kg, doses <=200 mg (N=18)): no febrile neutropenic events or neutropenia-associated SAEs
- patients experiencing SAEs associated with neutropenia ([1]; 2.5 mg/kg, doses >200 mg (N=11)): 5 of 11
- febrile neutropenia ([1]; 2.5 mg/kg, doses >200 mg (N=11), includes the one treatment related death due to sepsis): 2 of 11
- dose-limiting toxicities (DLTs) ([1]; 19 DLT-evaluable patients, doses of 0.5 to 2.8 mg/kg q3wks IV): No dose-limiting toxicities (DLTs) occurred
- treatment-related deaths ([1]; 69 patients, total dose exceeded 200 mg per cycle, no other treatment-related deaths on-study): one treatment-related death due to sepsis
- AEs >=Grade 3: anemia [1, 5]: 15%
- AEs >=Grade 3: neutropenia [1, 5]: 25%
- treatment-emergent AE: abdominal pain [1, 5]: 25%
- treatment-emergent AE: alopecia [1, 5]: 36%
- treatment-emergent AE: constipation [1, 5]: 30%
- treatment-emergent AE: decreased appetite [1, 5]: 33%
- treatment-emergent AE: diarrhea [1, 5]: 25%
- treatment-emergent AE: fatigue [1, 5]: 59%
- treatment-emergent AE: nausea [1, 5]: 51%
- treatment-emergent AE: peripheral neuropathy [1, 5]: 44%
- treatment-emergent AE: neutropenia ([1]; all grades, % of 69 patients, 0.5 to 2.8 mg/kg q3wks IV): 25%
- patients who discontinued treatment due to AEs ([1]; of 69 patients): Seven
- febrile neutropenia ([1]; of 69 patients, both had a total dose exceeding 200 mg per cycle): 2 patients
- incidence of Grade 3 or higher neutropenia AEs ([1]; overall monotherapy study population): 39%
- maximum tolerated dose ([1]; q3wks IV, not exceeded at the highest dose): ≥ 2.8 mg/kg
- patients with SD>=24 wks [2]: one
- disease control rate (DCR=CR+PR+SD) ([2]; 10 SD): 59%
- confirmed PR rate ([3]; 44 efficacy evaluable TN patients): 21%
- objective response rate (ORR) ([3]; 44 efficacy evaluable TN patients (dose escalation plus expansion cohorts), 14 PR): 32%
- DCR ([3]; 44 efficacy evaluable TN patients, 14 PR, 14 SD): 64%
- clinical benefit rate (CBR=CR+PR+SD>=24 weeks) ([3]; 44 efficacy evaluable TN patients, 16 patients): 36%
- median PFS ([3]; TN patients, 95% CI: 6.1, 17.1): 11.3 weeks
- administrations resulting in development of neutropenia ([4]; co-administered with GCSF, 7 administrations): none
- administrations resulting in development of neutropenia ([4]; not co-administered with GCSF, 5 of 15 administrations): 33.3%
